Source: a protein production outcome set (Wang et al. 2014)

Experiment: label from the status in PepcDB records
With “MSDCLFDLHIGYVRFKNPIALAPMAGIVDSAFANQYASNAGLVILGAFNLDKASIAVASALVARGRKEFISDEPMEFMKKEIRAVTSGSAVAVNVRSTTLEPLIEAAKIVKEEGAILELNAHCRQPEMLEAGLGEALLHDLPKLSAWIRAIKETGVVLSVKVRANVVNDIELARLIDKAGADIIHVDAEMEGFGADLDAILNYRDATRLFLIGNNSVKDFEAAKEMFTRGADMVSAARGVLENSGLIQELVENVTSYQQSIGWYNAPKHVCSEGDFRGLAFCCLPVKPCPVHEKFQKLGYTAEEFARTKLDFAKGTMLEYGEDTCFGSLVWCCKITKPCWIRDGVLNTIGLSDTEYMKLKKQLAEYVLDHARIPVNESQ” the protein production was “failed”.
For “MSDEVPEILLAHYLKTLKLPTFQREYQKLARLCATEGVDHVEYLLRLSEREMIERDRRKVERRIKAARFPVVKSLDSFDFAAIPKLNKMQVLELARCEWIERRENVIALGPSGTGKTHVALGLGLAACQKGLSVGFTTAAALVSEMMEARDERRLLRFQKQMAAYQLLIIDELGFVPLSKTGAELLFELISQRYERGATLITSNLPFDEWTETLGSERLTGALLDRITHHVNILEMNGDSYRLAQSRARKAGLEHHHHHH”, the protein production was “not failed”.
For “MSDHNNKGRQQDVKALPRRVDERLNLSRHKEVKPSRLHDEVHRIVYELEARQLELEMQQENMLQSKEEMECLLKRYVEHYDIAPHSYMTISREGSILEANLTAAKNLGQDRALLKGDLLEKFIADKDRPVFKAFLERVFRGQTNAFCEVKLFNNQASQARGSAEADRYETVIEERMVRFDAALSNDGEECYIYITVSDRGSQNELEGQNTFFTDRLKDDIADMPDSDKVDFNYQLFDSVIHTRIRLAALSYLYTVKQACFVEIRDKIKASDGSLSVHMRMLESAGYISCDKEFLARKPQTVYRITPLGHDAFLKYSDIVFSLIAKKQEAS”, the protein production was “failed”.
With “MSDHVCQEGCRHHSHGEDSPEIQQEFQEGRRDFMRDFAVGGVLASAASLGISSSAFGQTMPKTGLTSGHATHYYIPASDKTVSWGFFSKSLKPVVELESGDFATIETLTHHSNDDASLMVKGDPGAESVFYWDSKRKNVDRRGMGPMDHKLGAGGGMGVHILTGPVAIKGAEPGDVLEVRIVDVALRPSANPEFKGKTFGSNVAANWGFHYNELIEEPKKREVVTIYELDATGERNWARAFYNYRWTPQKDPFGVVHPIVDYPGVPVDHSTISKNYNVLKNIRVPVRPHFGTMGLAPKEADLVNSVPPSHFGGNIDNWRIGKGATMYYPVSVAGGLFSVGDPHASQGDSEMCGTAIECSLTGTFQFILHKKADLPGTPLADLQYPLLETQDEWVLHGFSYANYLAELGPDAQNSIFSKSSLDLALKDAFRKMRHFLMQTQNLTEDEAVSLMSIGVDFGITQVVDGNWGVHAVVKKGIFPGRDV” the protein production was “not failed”.
With “MSDIAVRPIRAEDVPQACAILNRIIEIGGTTAFEQPVSEDEFDAWYVNGADLICCHVALDAAGAVAGFQWLGRNDSLPEGCGDIASFTRREPVLRGAGRALFACTVAVARDRGLAEINATIRADNALGLAYYGKMGFRDHVVTPAVPLRDGRPVDRISKRFDLRG” the protein production was “failed”.
With “MSDIKHEKKLANMDTPGETTKSFENKLDEEIPDIEESDFINSPPFSDEIFSPEDSKQVEISELSKQAYSLLKGNSITEAINVFKKILELDPTNNYALVGLGDAERKNNKFNEAIKFYKQCLEHHPSNNYALFGLADCYKSMNQFPRAIAIWEEYLKFDDKNITVLTRVADAYRKTKEFEKAEKLYQKVLEKSPKNAYALIGLGHLNYDFKKYREALVYWEKVMESSGELVDIRILTSIGNCYRKMKLFDRGVYYFERALERSPDNFYGLFGLADCYRGLNQQYNSIVYWKKILELDPNNKVILTRIGDAYRSMNDFEKAKESYQKALDIDFDSYAMLGLAILCKLQQKYDQAITTLTHLKDTGDTNYNYRVYLELAQCYIEKKEKQKAIETLIDFQKLGIKNQTVSDLLFELTKNDH” the protein production was “failed”.
For “MSDIKKLGSSWIINWFFGFNQIPTNEDSSIYMKSVLTCAKADGVISPEEKDWALGFCASWGVADWVIEDLKTYEADEALEEVIARSPQVSMAQRDILLSAIWVSAADGELHEKEKAKIRKMATILGIKEEIVDQLEQLYYYEAALRQKRLNLLYPQKSPY”, the protein production was “not failed”.
With “MSDIQVRHVEADKQFVIAVDGEDAGFAGYAERDGHRNFNHTVIDPRFRGQGLSQPLIQQALEATHADGLGVIATCSAVVGFVQKNPEFRDYLA” the protein production was “failed”.
For “MSDKHDVIVAGAGPAGAQCARDLAERGYDVVVLEAEPEDEFPRQSNKSTAGTFASMMGAFGVPDDVVMQYTDDVVLESPHEYFVQDQPGAVLEFAEFKQWLVAAGEQQGAEYRFEARVNNPITEGGEIVGVKYDGDEEVYGDIIIDATGPAAPLAKKLGVTDLRRSNQAIGIEWEMENVAVDHEGYADLSDAMMLRLDHDLAPGGYSWIFHTGADTAKVGICYIQNESYQRFGDASKSIDDHLDYWMETDPRLADATKLAGKQHRGSAHIQLPANFSTDNFMAIGDTVPTVDPLWGEGIHKCMESARAAAITADRCFMGDDRDTSADALSIYDDLWHKRVAPNARMRLTMTQLLYLASNERYDRLMSDLQTADVGTLSGANEGGLRSLLEFVHTEDVPLLARFARDRLRA”, the protein production was “failed”.
With “MSDLITLAQLSQGYRYNSDSLILADFILKQGIKGAVFDVGAGCGIIGILLKKNIANLSLSLIDIQKENIELIEKNLKSNKIQGDIFHDDFNQFQIIKKFDFIVCNPPFYRQGAYKSEDQHKAISKFQEFLPLHSFLAKTNSMLKPNGTLYFCYEALALDEICFILKDMKMKITKLCFVHTHQSKKARLVLIQVKKGSKSPCEILPPFFVYENEILSKQMQEIHLRFRLKSYDI” the protein production was “failed”.
For “MSDLLDTVRGLAKKTDSKILMVVLDGVGGLPLTVNGDTELATARTPNLDALAQESQLGQLELVGAGITPGSGPGHLSLFGYDPLKYVVGRGALSAVGIGVKLNRGDVAVRGNFATLGAGRLILDRRAGRPSDEKNAEIVAKLRAAIPEIDGVAVEVYTESEHRFVVVFRAPEGQPLGANISDVDPQVTGVEPKTAIANDPSSEVTAGLINTFVARAEVALADEPQVNGVLFRGYSDVPHFPSFEDAYQLKAACIASYPMYKGLASLVGMDVLPVEGHEDALEGKVKALRENWAKYDFFYFHIKKTDSTGEDGDFAEKVHKIELFDELLPQLLELQPDVIAVVGDHSTPSKLKSHSWHPVPLLIRSNYGRRDPAQRYTEEEAARGTLGLRHGPDLMPLLMANALKLNKYGALEHHHHHH”, the protein production was “not failed”.
In the case of “MSDMFLPARMRKLKIITLDQYSDSVVRSLHEEGVTQIDDISERIQQDAEWRQILKPSRATPYTGRVSSLLMKTSGILDFLGSVAAEEKGLRDTIREFINPPIFEKREVEELDTESLIERAEETLGRVESETRVMEEKLNELDSERSAVESSLSVAEKLKDFDIDFSDLQDSEYITGIAGRITAENLPELRDKLADITDELVISDREGENKAERILIIVTLKKHADSIASVLRRMEFERFEISELQGRPSEIISSSKTRLEEISRERKEIISKLRDINAEWEDELLVLREQLEIEKERNEVFSLFGETRKTVMLEAWVPLKEADRVIAVVEESSEGTALTDLEDPDPEEVPVLLDNPRFAKPYETFVEMYSPLKYNEIDPTIFMAFVFPFFFGFCLTDAGYGIIDALIGFILYRGLGKVNNFMRNFGIIMMSCGVWAFILGMVTNGFIGDFFPRFFNITLPTVIPAIDAFVNPQNILIMALTVGVLHINFGLILGARNNIRLGNMREALGSQIVWLILELGIILYLVGGMIFGAPLIILAFAMLLYYNGLFGLMDVSGFLGTLLSYARLLALCLSTGGIAMTVNILTGLSYEMIPVIGVVLAPIIFVFGHIANNAFQSLGAFINSLRLHYVEFFAQFYMGGKNKFNAFRAERNFTKIRR”, the protein production is reported as “failed”.
With “MSDMGVIVKTNARALIPLIGVFGSYIILHGHLTPGGGFQGGATIVGTALLFLIAFGVDEAKKRINKDLYSALEGIGGLVFLGAAMLGLSVAFFYNILWHKGPLFNGRPGTLLSAGFLPIMNLGVGLKVFTGLVSAVFALALFRRWKE” the protein production was “failed”.
